For series [1], the target named is T1, Oct4 (recombinant);Sox2 (recombinant) (mouse?;mouse?, UniProt P20263;P48432 1-352;1-319, |). The experiment in a line: EMSA; Oct4-Sox2-Oct4 complex (two Oct4, one Sox2); 10 mM Tris pH 8.0, 2 mM MgCl (so in the source), 100 mM KCl, 1.25 mM DTT, 5% glycerol, 0.0625% BSA, 19 ug/ml dGdC, 25 fmol probe in 16 ul, 10 min room temperature; 4% PAGE 0.25X TBE. The conditions noted are these: protein: recombinant;recombinant; tags: ;; chain copies: 2;1. (In EMSA bound probe runs differently from free probe, usually more slowly.)

For series [2], the target named is T1, Oct4 (recombinant);Sox2 (recombinant). The experiment in a line: EMSA; several complexes, minor one likely full occupancy; 10 mM Tris pH 8.0, 2 mM MgCl (so in the source), 100 mM KCl, 1.25 mM DTT, 5% glycerol, 0.0625% BSA, 19 ug/ml dGdC, 25 fmol probe in 16 ul, 10 min room temperature; 4% PAGE 0.25X TBE. The conditions noted are these: protein: recombinant;recombinant; tags: ;; copies: 1;1.

For series [3] the target is unchanged. The experiment in a line: EMSA; cooperative ternary complex; versus independent binding; 10 mM Tris pH 8.0, 2 mM MgCl (so in the source), 100 mM KCl, 1.25 mM DTT, 5% glycerol, 0.0625% BSA, 19 ug/ml dGdC, 25 fmol probe in 16 ul, 10 min room temperature; 4% PAGE 0.25X TBE. The note with it: protein: recombinant;recombinant; tags: ;; copies: 1;1.
The target is the same in series [4]. The experiment in a line: EMSA; all CpGs methylated; complex not inhibited; 10 mM Tris pH 8.0, 2 mM MgCl (so in the source), 100 mM KCl, 1.25 mM DTT, 5% glycerol, 0.0625% BSA, 19 ug/ml dGdC, 25 fmol probe in 16 ul, 10 min room temperature; 4% PAGE 0.25X TBE. The conditions noted are these: protein: recombinant;recombinant; tags: ;; copies: 1;1.
The target is the same in series [5]. The series is described as follows: EMSA; cooperative ternary complex; printed as at least 50 fold; 10 mM Tris pH 8.0, 2 mM MgCl (so in the source), 100 mM KCl, 1.25 mM DTT, 5% glycerol, 0.0625% BSA, 19 ug/ml dGdC, 25 fmol probe in 16 ul, 10 min room temperature; 4% PAGE 0.25X TBE. The conditions noted are these: protein: recombinant;recombinant; tags: ;; copies: 1;1.

Bounds are passed on as bounds.

T1 sequence (P20263 whole entry, chain 1 of 2): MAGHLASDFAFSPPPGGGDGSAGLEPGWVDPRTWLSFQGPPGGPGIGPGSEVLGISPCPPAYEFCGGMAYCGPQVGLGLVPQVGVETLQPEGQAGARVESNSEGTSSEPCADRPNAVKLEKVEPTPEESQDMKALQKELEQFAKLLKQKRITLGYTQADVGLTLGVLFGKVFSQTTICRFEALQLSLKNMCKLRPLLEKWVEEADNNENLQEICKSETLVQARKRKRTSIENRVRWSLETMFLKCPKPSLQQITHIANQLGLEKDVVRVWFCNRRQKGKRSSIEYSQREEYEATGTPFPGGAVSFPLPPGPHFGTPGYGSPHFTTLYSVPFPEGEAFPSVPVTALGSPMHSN
T1 sequence (P48432 whole entry, chain 2 of 2): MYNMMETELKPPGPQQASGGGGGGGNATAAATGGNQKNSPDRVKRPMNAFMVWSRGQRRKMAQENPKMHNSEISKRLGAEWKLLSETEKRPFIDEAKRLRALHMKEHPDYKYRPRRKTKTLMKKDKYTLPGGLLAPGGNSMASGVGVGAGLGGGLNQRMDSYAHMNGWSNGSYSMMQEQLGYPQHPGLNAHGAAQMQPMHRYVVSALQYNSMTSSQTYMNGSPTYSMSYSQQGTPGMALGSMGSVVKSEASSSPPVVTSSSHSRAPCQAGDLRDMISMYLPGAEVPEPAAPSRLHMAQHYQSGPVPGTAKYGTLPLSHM

B1: human ICR A2 OctA/Sox-OctB, upstream Sox site mutant (dsDNA)
DNA 1: CGCGGAGATGCTAATTTAGGAGCTTGAGATGCTAAAGAGCTG
DNA 2: CAGCTCTTTAGCATCTCAAGCTCCTAAATTAGCATCTCCGCG
As to B1, in series [1], the binding result was “binds”.

B2: mouse ICR Sox-OctA+B (both motifs) (dsDNA)
DNA 1: TTTCGTATTCTAATTGGGGCGTTCAGATGCTAATGATCTC
DNA 2: GAGATCATTAGCATCTGAACGCCCCAATTAGAATACGAAA
For B2, the binding result in series [2] is on record as “binds”.

B3: ICR Sox-OctA (dsDNA)
DNA 1: CTGGTGATTTGCGCTTTCGTATTCTAATTGGGGAC
DNA 2: GTCCCCAATTAGAATACGAAAGCGCAAATCACCAG
As to B3, the binding result in series [3] was “binds”.

B4: A* (methylated Sox-OctA) (dsDNA)
DNA 1: CTGGTGATTTGCGCTTTCGTATTCTAATTGGGGAC
DNA 2: GTCCCCAATTAGAATACGAAAGCGCAAATCACCAG
modifications: CpG methylated at all CpGs
In the case of B4, the binding result in series [4] is recorded as “binds”.

B5: ICR Sox-OctB (dsDNA)
DNA 1: TTGGGGCGTTCAGATGCTAATGATCTCCGGCT
DNA 2: AGCCGGAGATCATTAGCATCTGAACGCCCCAA
Consider B5, for which the binding signal in series [5] is > 50 fold ternary complex over that expected from independent binding.

B6: B* (methylated Sox-OctB) (dsDNA)
DNA 1: TTGGGGCGTTCAGATGCTAATGATCTCCGGCT
DNA 2: AGCCGGAGATCATTAGCATCTGAACGCCCCAA
modifications: CpG methylated at all CpGs
With B6, in series [4], the binding result is listed as “binds”.

(Values after PMC3855764, “Oct4/Sox2 Binding Sites Contribute to Maintaining Hypomethylation of the Maternal Igf2/H19 Imprinting Control Region”.)
